In patent publication US20090149389A1:

Biological target: MAPKAP kinase II (MK2) (UniProt P49137)
Experiment: cell-based or functional assay

MAPKAP kinase II (MK2), sequence (P49137 whole entry): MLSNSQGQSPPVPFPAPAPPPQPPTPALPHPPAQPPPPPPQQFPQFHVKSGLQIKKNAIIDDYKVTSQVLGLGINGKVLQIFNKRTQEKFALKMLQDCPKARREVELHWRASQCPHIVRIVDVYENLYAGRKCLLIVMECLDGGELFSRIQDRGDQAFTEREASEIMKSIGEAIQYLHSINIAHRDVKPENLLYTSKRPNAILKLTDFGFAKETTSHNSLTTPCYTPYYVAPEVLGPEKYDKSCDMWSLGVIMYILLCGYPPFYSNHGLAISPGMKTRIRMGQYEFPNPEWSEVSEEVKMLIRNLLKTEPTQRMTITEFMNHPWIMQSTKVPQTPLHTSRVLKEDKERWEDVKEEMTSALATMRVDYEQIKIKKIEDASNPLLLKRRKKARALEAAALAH

% of … [SEQ ID NO: 124] Reaction Velocity at an Inhibitor Concentration of 100 µM: 276%
Substance: KALNRdQLGVAA (peptide)
